Publication PMC8857205

Molecular target: Glu14 (UniProt position 14, GAILAEVIGTT)
Experiment: NMR
[1] = TPP+-bound, cited from earlier work

| Substance | pKa [1] | pKa (45 °C, 20 mM NaCl plus buffer salts (total ionic strength not stated), 50 mM sodium acetate, 50 mM MOPS, 50 mM MES, 50 mM bicine, 2 mM TCEP, 0.01% DSS, F4-TPP+-bound (saturated), folded dimer in bicelles) |
| --- | --- | --- |
| EmrE (multidrug transporter, small multidrug resistance family), wild type (Escherichia coli) | 6.8 ± 0.1 | – |
| S64V-EmrE (Escherichia coli; S64V) | 7.0 ± 0.1 | 6.9 ± 0.1 |
